Measured values reported in article PMC4728063.

Molecular target: T1, RS1 (retinoschisin), human, recombinant, secreted from Sf21 insect cells (human), O15537
T1 chain: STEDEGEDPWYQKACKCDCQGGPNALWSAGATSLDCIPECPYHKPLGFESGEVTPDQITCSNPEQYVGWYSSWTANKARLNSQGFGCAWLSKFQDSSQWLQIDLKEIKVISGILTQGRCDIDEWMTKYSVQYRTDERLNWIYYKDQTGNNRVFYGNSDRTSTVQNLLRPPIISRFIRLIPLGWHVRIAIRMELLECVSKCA
Experiment: negative stain single particle electron microscopy; purified RS1 adsorbed to glow discharged carbon-coated copper grids, stained with 0.75% uranyl formate; 2D classification (SPIDER) and 3D reconstruction (EMAN2, RELION, D8 symmetry enforced)
Settings: remark: other sources report otherwise

stoichiometry N: 8
B1: RS1 (retinoschisin), human, recombinant, secreted from Sf21 insect cells, O15537 24-224 (natural protein)
chain: STEDEGEDPWYQKACKCDCQGGPNALWSAGATSLDCIPECPYHKPLGFESGEVTPDQITCSNPEQYVGWYSSWTANKARLNSQGFGCAWLSKFQDSSQWLQIDLKEIKVISGILTQGRCDIDEWMTKYSVQYRTDERLNWIYYKDQTGNNRVFYGNSDRTSTVQNLLRPPIISRFIRLIPLGWHVRIAIRMELLECVSKCA
